3 substances from ChEMBL document CHEMBL3525898, “Pharmacogenomics of gemcitabine metabolism: functional analysis of genetic variants in cytidine deaminase and deoxycytidine kinase” (Drug Metab Dispos, 2013) can be followed below.

For orientation: Km means the concentration of substrate that gives half-maximal velocity. As a reminder, the Vmax is the rate approached at saturating substrate.

Common to all, as to type: ADME
For data set [1], the system named is Nc1ccn([C@@H]2O[C@H](CO)[C@@H](O)C2(F)F)c(=O)n1. Briefly: Activity of human recombinant N-terminal His-SUMO fused CDA Ala70Thr mutant expressed in Escherichia coli BL21(DE3) cells assessed as 2',2'-difluorodeoxyuridine formation by liquid chromatography-tandem mass spectrometry.
The test system is the same in data set [2]. Briefly: Activity of human recombinant N-terminal His-SUMO fused CDA Lys27Gln mutant expressed in Escherichia coli BL21(DE3) cells assessed as 2',2'-difluorodeoxyuridine formation by liquid chromatography-tandem mass spectrometry.
Data set [3] shares this test system. Briefly: Activity of human recombinant N-terminal His-tagged wild type DCK expressed in Escherichia coli BL21(DE3) cells assessed as enzyme-mediated […] incubated for 1 min by liquid chromatography-tandem mass spectrometry.

Sequence of Deoxycytidine kinase (Homo sapiens) (chain, as listed by the source): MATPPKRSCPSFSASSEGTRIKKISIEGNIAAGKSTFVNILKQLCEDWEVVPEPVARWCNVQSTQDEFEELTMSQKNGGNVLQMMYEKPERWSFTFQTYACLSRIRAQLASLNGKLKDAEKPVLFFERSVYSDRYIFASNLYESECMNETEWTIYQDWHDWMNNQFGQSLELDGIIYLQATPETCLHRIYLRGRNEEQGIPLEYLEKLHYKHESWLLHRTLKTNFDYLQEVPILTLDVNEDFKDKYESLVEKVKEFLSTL

Turning to Cytidine deaminase (Homo sapiens; A70T), in data set [1], the Km is 610 µM and the Vmax came to 0.151 µmol/min/mg.
For the substance Cytidine deaminase (Homo sapiens; K27Q), in data set [2], the Km is 562 µM and the Vmax was determined as 0.195 µmol/min/mg.
For Deoxycytidine kinase (Homo sapiens), in data set [3], the Km was found to be 2.15 µM and the Vmax was found to be 1.06 µmol/min/mg.
